Data reported in patent US20060099150A1 (published 2006).

Biological target: T1, pIgR Domain 6 GST (D6-GST) fusion protein, species not stated (Schistosoma japonica, UniProt P08515 1-218 = GST)
T1 construct: also called D6-GST constructs
Assay: SPR BIAcore, 1:1 Langmuir global fit 62.5-1000 nM; ligand not named

T1 sequence (P08515 whole entry, the tested form may be a part): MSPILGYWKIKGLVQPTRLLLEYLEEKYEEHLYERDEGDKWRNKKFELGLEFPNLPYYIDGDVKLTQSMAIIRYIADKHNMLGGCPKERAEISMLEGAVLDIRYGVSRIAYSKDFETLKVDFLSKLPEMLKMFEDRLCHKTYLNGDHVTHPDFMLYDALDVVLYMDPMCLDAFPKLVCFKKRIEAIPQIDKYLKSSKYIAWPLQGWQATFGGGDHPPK

Binder | Ka [M⁻¹] | Kd [nM] | koff [s⁻¹] | kon [M⁻¹ s⁻¹]
single chain antibody sFv5A (scFv, also called sFv (positive control)) scFv: QVQLQQSGGGVVQPGRSLRLSCAASGFTFSSYAMHWVRQAPGKGLEWVSAISGSGGSTYYADSVKGRFTISRDNAKNSLYLQMNSLRAEDTAVYYCARDTRGYFDLWGRGTLVTVSSGGGGSGGGGSGGGGSSELTQDPAMSVALGQTVRITCQGDSLRKYHASWYQQRPRQAPRLVVYGKNERPSGIPERFSGSTSGDTASLTISGLQAEDEADYYCHSRDSNADLVVFGGGTKVTVLGAAAEQKLISEEDLNGAAHHHHHH | 6.31e+06 | 158 | 0.00464 | 29300
sFv5AF-Cys (scFv, also called s5AF-Cys; sFv5AF-Cys starting material) scFv: DYKAKQVQLVQSGGGVVQPGRSLRLSCAASGFTFSSYAMHWVRQAPGKGLEWVSAISGSGGSTYYADSVKGRFTISRDNAKNSLYLQMNSLRAEDTAVYYCARDTRGYFDLWGRGTLVTVSSGGGGSGGGGSGGGGSSELTQDPAMSVALGQTVRITCQGDSLRKYHASWYQQRPRQAPRLVVYGKNERPSGIPERFSGSTSGDTASLTISGLQAEDEADYYCHSRDSNADLVVFGGGTKVTVLGGGGGSCAAAEQKLISEEDLNGAAHHHHHH | 9.84e+06 | 102 | 0.00464 | 37600
